Experimental findings from patent US20250320295A1 (INHIBRX BIOSCIENCES, published 2025) are described below.

The assay deals with T1, Human CD8a (human, UniProt P01732 22-235).
T1 construct: also called CD8α; human CD8a-FL
Put plainly: flow cytometry, HEK293F cells transfected with human CD8a (citrine+ gate). As for the experimental part: Binding of polypeptides comprising a humanized CD8a-binding VHH domain, an Fc region, and, in certain polypeptides, a mutated, attenuated IL-2 fused to the C-terminus of the Fc region, was assessed by flow cytometry on HEK293F cells transiently transfected with a plasmid encoding human CD8α or CD8b chains. […] Complexes or polypeptides that are not labeled “KiH” form homodimers under physiologic conditions. The transfected cells were plated in a 96-well plate at 50,000 cells per well in FACS buffer (PBS, 1% BSA, 0.1% NaN₃, pH 7.4). Test polypeptides were then diluted to 2× the final concentration of 500 nM, and a 6-fold serial dilution was made. FACS buffer with no polypeptide was used as a secondary antibody-only control. Test polypeptides were added to an equal volume of cells, and assay plates were incubated for 30 minutes at 4° C. After washing twice with 150 μL of FACS buffer per well, the cells were resuspended in FACS buffer with a fluorescently-labeled anti-human Fc antibody diluted 1:1000 to detect CD8 binding. Assay plates were incubated at 4° C. for 30 minutes. After one additional wash with 150 μL of FACS buffer, polypeptide bound to CD8 was detected by flow cytometry on cells positive for the transfection marker citrine. Binding was measured on these cell populations as mean fluorescence intensity (MFI) at 647 nm. Flow cytometric detection was performed on an IntelliCyt iQue Screener Plus. The data were plotted and analyzed using GraphPad Prism analysis software.
A general note: A flow cytometer gives signals particle by particle.

T1 sequence (P01732 22-235): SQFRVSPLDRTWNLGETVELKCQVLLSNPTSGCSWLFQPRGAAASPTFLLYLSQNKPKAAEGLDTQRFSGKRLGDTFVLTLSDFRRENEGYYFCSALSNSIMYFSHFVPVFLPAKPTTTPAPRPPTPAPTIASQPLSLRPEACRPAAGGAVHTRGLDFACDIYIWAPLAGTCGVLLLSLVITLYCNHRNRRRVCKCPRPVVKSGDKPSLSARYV

B1: hzB7v21-xELL-P329G-KiH Fc-IL-2 mutant (Fc fusion)
chain 1: QVQLVQSGGGEVQPGGSLRLSCAASGFTFDDYAMSWVRQAPGKGLEWVSTITWDAEGTDYAESVKGRFTISRDNAKNTVYLQMSSLRAEDTAVYYCAKGSPELQYDTWGQGTLVTVKPDKTHTCPPCPAPGGPSVFLFPPKPKDTLMISRTPEVTCVVVDVSHEDPEVKFNWYVDGVEVHNAKTKPREEQYNSTYRVVSVLTVLHQDWLNGKEYKCKVSNKALGAPIEKTISKAKGQPREPQVCTLPPSRDELTKNQVSLSCAVKGFYPSDIAVEWESNGQPENNYKTTPPVLDSDGSFFLVSKLTVDKSRWQQGNVFSCSVMHEALHNRYTQKSLSLSPG
chain 2: QVQLVQSGGGEVQPGGSLRLSCAASGFTFDDYAMSWVRQAPGKGLEWVSTITWDAEGTDYAESVKGRFTISRDNAKNTVYLQMSSLRAEDTAVYYCAKGSPELQYDTWGQGTLVTVKPDKTHTCPPCPAPGGPSVFLFPPKPKDTLMISRTPEVTCVVVDVSHEDPEVKFNWYVDGVEVHNAKTKPREEQYNSTYRVVSVLTVLHQDWLNGKEYKCKVSNKALGAPIEKTISKAKGQPREPQVYTLPPCRDELTKNQVSLWCLVKGFYPSDIAVEWESNGQPENNYKTTPPVLDSDGSFFLYSKLTVDKSRWQQGNVFSCSVMHEALHNHYTQKSLSLSPG
notes: Knob-in-hole heterodimer: VHH on the N-terminus of each Fc, mutant IL-2 only on the knob Fc; not shown: mutant, attenuated IL-2 fused to the C-terminus of the knob Fc
By Kd is commonly meant the free concentration of one partner at which half of the binding sites on the other are occupied at equilibrium, for simple one-to-one binding. For B1, the Kd was 5.23 nM.

B2: hzB7v19-xELL-P329G-KiH Fc-IL-2 mutant (Fc fusion)
chain 1: QVQLVESGGGEVQPGGSLRLSCAASGFTFDDYAMSWVRQAPGKGLEWVSTITWDAEGTDYAESVKGRFTISRDNAKNTVYLQMSSLRAEDTAVYYCAKGSPELQYDTWGQGTLVTVKPDKTHTCPPCPAPGGPSVFLFPPKPKDTLMISRTPEVTCVVVDVSHEDPEVKFNWYVDGVEVHNAKTKPREEQYNSTYRVVSVLTVLHQDWLNGKEYKCKVSNKALGAPIEKTISKAKGQPREPQVCTLPPSRDELTKNQVSLSCAVKGFYPSDIAVEWESNGQPENNYKTTPPVLDSDGSFFLVSKLTVDKSRWQQGNVFSCSVMHEALHNRYTQKSLSLSPG
chain 2: QVQLVESGGGEVQPGGSLRLSCAASGFTFDDYAMSWVRQAPGKGLEWVSTITWDAEGTDYAESVKGRFTISRDNAKNTVYLQMSSLRAEDTAVYYCAKGSPELQYDTWGQGTLVTVKPDKTHTCPPCPAPGGPSVFLFPPKPKDTLMISRTPEVTCVVVDVSHEDPEVKFNWYVDGVEVHNAKTKPREEQYNSTYRVVSVLTVLHQDWLNGKEYKCKVSNKALGAPIEKTISKAKGQPREPQVYTLPPCRDELTKNQVSLWCLVKGFYPSDIAVEWESNGQPENNYKTTPPVLDSDGSFFLYSKLTVDKSRWQQGNVFSCSVMHEALHNHYTQKSLSLSPG
notes: as for B1
The molecule B2 yielded a Kd of 7.5 nM.

B3: hzB7v24-xELL-P329G-KiH Fc-IL-2 mutant (Fc fusion)
chain 1: QVQLVQSGGGEVQPGGSLRLSCAASGFTFSSYAMSWVRQAPGKGLEWVSTITWDAEGTDYAESVKGRFTISRDNAKNTVYLQMSSLRAEDTAVYYCAKGSPELQYDTWGQGTLVTVKPDKTHTCPPCPAPGGPSVFLFPPKPKDTLMISRTPEVTCVVVDVSHEDPEVKFNWYVDGVEVHNAKTKPREEQYNSTYRVVSVLTVLHQDWLNGKEYKCKVSNKALGAPIEKTISKAKGQPREPQVCTLPPSRDELTKNQVSLSCAVKGFYPSDIAVEWESNGQPENNYKTTPPVLDSDGSFFLVSKLTVDKSRWQQGNVFSCSVMHEALHNRYTQKSLSLSPG
chain 2: QVQLVQSGGGEVQPGGSLRLSCAASGFTFSSYAMSWVRQAPGKGLEWVSTITWDAEGTDYAESVKGRFTISRDNAKNTVYLQMSSLRAEDTAVYYCAKGSPELQYDTWGQGTLVTVKPDKTHTCPPCPAPGGPSVFLFPPKPKDTLMISRTPEVTCVVVDVSHEDPEVKFNWYVDGVEVHNAKTKPREEQYNSTYRVVSVLTVLHQDWLNGKEYKCKVSNKALGAPIEKTISKAKGQPREPQVYTLPPCRDELTKNQVSLWCLVKGFYPSDIAVEWESNGQPENNYKTTPPVLDSDGSFFLYSKLTVDKSRWQQGNVFSCSVMHEALHNHYTQKSLSLSPG
notes: as for B1
For B3, the “Bmax (MFI)” value turned out to be 1.28e+07 MFI and binding was put at a Kd of 6.54 nM.

B4: hzB7v26-xELL-P329G-KiH Fc-IL-2 mutant (Fc fusion)
chain 1: QVQLVQSGGGEVQPGGSLRLSCAASGFTFDDYAMSWVRQAPGKGLEWVSTITWDAGGTDYAESVKGRFTISRDNAKNTVYLQMSSLRAEDTAVYYCAKGSPELQYDTWGQGTLVTVKPDKTHTCPPCPAPGGPSVFLFPPKPKDTLMISRTPEVTCVVVDVSHEDPEVKFNWYVDGVEVHNAKTKPREEQYNSTYRVVSVLTVLHQDWLNGKEYKCKVSNKALGAPIEKTISKAKGQPREPQVCTLPPSRDELTKNQVSLSCAVKGFYPSDIAVEWESNGQPENNYKTTPPVLDSDGSFFLVSKLTVDKSRWQQGNVFSCSVMHEALHNRYTQKSLSLSPG
chain 2: QVQLVQSGGGEVQPGGSLRLSCAASGFTFDDYAMSWVRQAPGKGLEWVSTITWDAGGTDYAESVKGRFTISRDNAKNTVYLQMSSLRAEDTAVYYCAKGSPELQYDTWGQGTLVTVKPDKTHTCPPCPAPGGPSVFLFPPKPKDTLMISRTPEVTCVVVDVSHEDPEVKFNWYVDGVEVHNAKTKPREEQYNSTYRVVSVLTVLHQDWLNGKEYKCKVSNKALGAPIEKTISKAKGQPREPQVYTLPPCRDELTKNQVSLWCLVKGFYPSDIAVEWESNGQPENNYKTTPPVLDSDGSFFLYSKLTVDKSRWQQGNVFSCSVMHEALHNHYTQKSLSLSPG
notes: as for B1
In the case of B4, the “Bmax (MFI)” value worked out at 1.52e+07 MFI and the affinity, expressed as Kd, was 4.55 nM.

B5: hzB7v23-xELL-P329G-KiH Fc-IL-2 mutant (Fc fusion)
chain 1: QVQLVQSGGGEVQPGGSLRLSCAASGFTFDSYAMSWVRQAPGKGLEWVSTITWDAEGTDYAESVKGRFTISRDNAKNTVYLQMSSLRAEDTAVYYCAKGSPELQYDTWGQGTLVTVKPDKTHTCPPCPAPGGPSVFLFPPKPKDTLMISRTPEVTCVVVDVSHEDPEVKFNWYVDGVEVHNAKTKPREEQYNSTYRVVSVLTVLHQDWLNGKEYKCKVSNKALGAPIEKTISKAKGQPREPQVCTLPPSRDELTKNQVSLSCAVKGFYPSDIAVEWESNGQPENNYKTTPPVLDSDGSFFLVSKLTVDKSRWQQGNVFSCSVMHEALHNRYTQKSLSLSPG
chain 2: QVQLVQSGGGEVQPGGSLRLSCAASGFTFDSYAMSWVRQAPGKGLEWVSTITWDAEGTDYAESVKGRFTISRDNAKNTVYLQMSSLRAEDTAVYYCAKGSPELQYDTWGQGTLVTVKPDKTHTCPPCPAPGGPSVFLFPPKPKDTLMISRTPEVTCVVVDVSHEDPEVKFNWYVDGVEVHNAKTKPREEQYNSTYRVVSVLTVLHQDWLNGKEYKCKVSNKALGAPIEKTISKAKGQPREPQVYTLPPCRDELTKNQVSLWCLVKGFYPSDIAVEWESNGQPENNYKTTPPVLDSDGSFFLYSKLTVDKSRWQQGNVFSCSVMHEALHNHYTQKSLSLSPG
notes: as for B1
For the molecule B5, the “Bmax (MFI)” value came to 1.43e+07 MFI and the Kd was found to be 3.9 nM.

B6: hzB7v25-xELL-P329G-KiH Fc-IL-2 mutant (Fc fusion)
chain 1: QVQLVQSGGGEVQPGGSLRLSCAASGFTFDDYAMSWVRQAPGKGLEWVSTITWSAEGTDYAESVKGRFTISRDNAKNTVYLQMSSLRAEDTAVYYCAKGSPELQYDTWGQGTLVTVKPDKTHTCPPCPAPGGPSVFLFPPKPKDTLMISRTPEVTCVVVDVSHEDPEVKFNWYVDGVEVHNAKTKPREEQYNSTYRVVSVLTVLHQDWLNGKEYKCKVSNKALGAPIEKTISKAKGQPREPQVCTLPPSRDELTKNQVSLSCAVKGFYPSDIAVEWESNGQPENNYKTTPPVLDSDGSFFLVSKLTVDKSRWQQGNVFSCSVMHEALHNRYTQKSLSLSPG
chain 2: QVQLVQSGGGEVQPGGSLRLSCAASGFTFDDYAMSWVRQAPGKGLEWVSTITWSAEGTDYAESVKGRFTISRDNAKNTVYLQMSSLRAEDTAVYYCAKGSPELQYDTWGQGTLVTVKPDKTHTCPPCPAPGGPSVFLFPPKPKDTLMISRTPEVTCVVVDVSHEDPEVKFNWYVDGVEVHNAKTKPREEQYNSTYRVVSVLTVLHQDWLNGKEYKCKVSNKALGAPIEKTISKAKGQPREPQVYTLPPCRDELTKNQVSLWCLVKGFYPSDIAVEWESNGQPENNYKTTPPVLDSDGSFFLYSKLTVDKSRWQQGNVFSCSVMHEALHNHYTQKSLSLSPG
notes: as for B1
B6: the “Bmax (MFI)” value stood at 1.45e+07 MFI and the Kd was found to be 3.28 nM.

B7: hzB7v20-xELL-P329G-KiH Fc-IL-2 mutant (Fc fusion)
chain 1: EVQLVQSGGGEVQPGGSLRLSCAASGFTFDDYAMSWVRQAPGKGLEWVSTITWDAEGTDYAESVKGRFTISRDNAKNTVYLQMSSLRAEDTAVYYCAKGSPELQYDTWGQGTLVTVKPDKTHTCPPCPAPGGPSVFLFPPKPKDTLMISRTPEVTCVVVDVSHEDPEVKFNWYVDGVEVHNAKTKPREEQYNSTYRVVSVLTVLHQDWLNGKEYKCKVSNKALGAPIEKTISKAKGQPREPQVCTLPPSRDELTKNQVSLSCAVKGFYPSDIAVEWESNGQPENNYKTTPPVLDSDGSFFLVSKLTVDKSRWQQGNVFSCSVMHEALHNRYTQKSLSLSPG
chain 2: EVQLVQSGGGEVQPGGSLRLSCAASGFTFDDYAMSWVRQAPGKGLEWVSTITWDAEGTDYAESVKGRFTISRDNAKNTVYLQMSSLRAEDTAVYYCAKGSPELQYDTWGQGTLVTVKPDKTHTCPPCPAPGGPSVFLFPPKPKDTLMISRTPEVTCVVVDVSHEDPEVKFNWYVDGVEVHNAKTKPREEQYNSTYRVVSVLTVLHQDWLNGKEYKCKVSNKALGAPIEKTISKAKGQPREPQVYTLPPCRDELTKNQVSLWCLVKGFYPSDIAVEWESNGQPENNYKTTPPVLDSDGSFFLYSKLTVDKSRWQQGNVFSCSVMHEALHNHYTQKSLSLSPG
notes: as for B1
The molecule B7 returned a dissociation constant (Kd) of 4.48 nM. This counts as single-digit nanomolar.
